Source: paper PMC8546028
“And” between values parts separate entries of the source, which are not always exact repeats. Identical values can stand only once.

Tests used:
[1] = biological target: SM2-ΔC24 (deletion of 24 amino acids from C-terminus of SM2) (Synechococcus sp. phage S-ShM2); test: SEC-MALS; Superose-6 10/300 GL, room temperature (25 °C), 1 mg/ml (100 μl) injected, flow 0.2 ml/min; protein kept in 20 mM Tris, 200 mM NaCl, pH 8.0; self-association
[2] = biological target: SM2-ΔN14 (deletion of 14 amino acids from N-terminus of SM2) (Synechococcus sp. phage S-ShM2); test: crystal structure; SM2-ΔN14 at 12 mg/ml, 0.2 M lithium sulphate monohydrate, 0.1 M Tris pH 8.5, 25% PEG 3350; space group I4, 7 Å, 3 dimers in the asymmetric unit; molecular replacement with the AgsA dimer (PDB 4ZJA)
[3] = biological target: SM2-ΔN14 (deletion of 14 amino acids from N-terminus of SM2) (Synechococcus sp. phage S-ShM2); test: SEC-MALS; Superose-6 10/300 GL, room temperature (25 °C), 1 mg/ml (100 μl) injected, flow 0.2 ml/min; protein kept in 20 mM Tris, 200 mM NaCl, pH 8.0; self-association
[4] = biological target: SM2-ΔN40ΔC24 (deletion of 40 amino acids from N-terminus and 24 amino acids from C-terminus of SM2) (Synechococcus sp. phage S-ShM2); test: as above
[5] = biological target: full length SM2 Tagged (SM2-FL), small heat shock protein HspSP-ShM2 of Synechococcus sp. phage S-ShM2 (Synechococcus sp. phage S-ShM2); test: cryo-EM structure; SM2-FL at 3 mg/ml on Quantifoil R2/1 grids, Talos Arctica 200 kV; one sample sorted into a large dataset (about 90%, 8 Å) and a small dataset (about 10%, 7.7 Å); the dimer of the crystal structure fitted to the maps
[6] = biological target: full length SM2 Tagged (SM2-FL), small heat shock protein HspSP-ShM2 of Synechococcus sp. phage S-ShM2 (Synechococcus sp. phage S-ShM2); test: SEC-MALS; Superose-6 10/300 GL, room temperature (25 °C), 1 mg/ml (100 μl) injected, flow 0.2 ml/min; protein kept in 20 mM Tris, 200 mM NaCl, pH 8.0; self-association

Substance: SM2-ΔC24 (deletion of 24 amino acids from C-terminus of SM2) (domain or fragment)
- stoichiometry N [1]: 2

Substance: SM2-ΔN14 (deletion of 14 amino acids from N-terminus of SM2) (domain or fragment)
- stoichiometry N [2]: 24
- stoichiometry N [3]: 24

Substance: SM2-ΔN40ΔC24 (deletion of 40 amino acids from N-terminus and 24 amino acids from C-terminus of SM2) (domain or fragment)
- stoichiometry N [4]: 2

Substance: full length SM2 Tagged (SM2-FL), small heat shock protein HspSP-ShM2 of Synechococcus sp. phage S-ShM2 (natural protein)
- stoichiometry N [5]: 60 and 48
- stoichiometry N [6]: > 40
